Reference: patent publication US20260193352A1 (published 2026)

Target: T1, cynomolgus monkey PD-1 Fc fusion (cynomolgus monkey, UniProt B0LAJ3 25-170)
T1 construct: also called Cyno PD-1
Test: SPR

T1 sequence (B0LAJ3 entry or part of it limits assumed, form in doubt): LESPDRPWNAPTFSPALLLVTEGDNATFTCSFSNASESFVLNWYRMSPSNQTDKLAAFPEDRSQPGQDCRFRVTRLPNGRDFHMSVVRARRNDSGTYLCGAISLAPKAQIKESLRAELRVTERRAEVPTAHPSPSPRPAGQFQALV

B1: PD-1-binding agent (comprising SEQ ID NOs: 1 and 2) (antibody, V domains shown)
VH: EVQLLESGGGLVQPGGSLRLSCAASGFTFSSYDMSWVRQAPGKGLEWVSTISGGGSYTYYQDSVKGRFTISRDNSKNTLYLQMNSLRAEDTAVYYCASPYYAMDYWGQGTTVTVSS
VL: DIQLTQSPSFLSAYVGDRVTITCKASQDVGTAVAWYQQKPGKAPKLLIYWASTLHTGVPSRFSGSGSGTEFTLTISSLQPEDFATYYCQHYSSYPWTFGQGTKLEIKR
  fold difference in KD (cynomolgus monkey PD-1 against human PD-1): < 2 fold
